Experimental data: publication PMC3035177 (Chemistry & biology, 2005)

Target: T1, DnaG primase (purified) (B. stearothermophilus, UniProt Q9X4D0 1-597)
T1 sequence (looked up): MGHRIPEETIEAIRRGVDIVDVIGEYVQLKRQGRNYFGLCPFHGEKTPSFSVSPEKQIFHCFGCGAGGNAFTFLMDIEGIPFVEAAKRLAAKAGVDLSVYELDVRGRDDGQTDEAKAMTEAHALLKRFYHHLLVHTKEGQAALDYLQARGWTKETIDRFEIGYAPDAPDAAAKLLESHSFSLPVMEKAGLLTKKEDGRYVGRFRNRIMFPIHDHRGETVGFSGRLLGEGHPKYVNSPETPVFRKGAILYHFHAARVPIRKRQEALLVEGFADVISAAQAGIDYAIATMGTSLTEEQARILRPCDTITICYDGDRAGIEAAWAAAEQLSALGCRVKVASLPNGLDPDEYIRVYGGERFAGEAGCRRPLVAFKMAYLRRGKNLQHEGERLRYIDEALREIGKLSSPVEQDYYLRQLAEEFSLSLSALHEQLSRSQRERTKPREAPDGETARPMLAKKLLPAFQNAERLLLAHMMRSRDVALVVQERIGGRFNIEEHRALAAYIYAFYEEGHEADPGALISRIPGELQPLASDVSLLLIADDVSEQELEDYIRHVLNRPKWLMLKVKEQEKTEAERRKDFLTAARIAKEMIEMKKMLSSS
Experiment: SEC

binding result: binds
B1: DnaB helicase (purified) (enzyme, B. stearothermophilus, UniProt Q9X4C9 1-454, looked up)
chain: MSELFSERIPPQSIEAEQAVLGAVFLDPAALVPASEILIPEDFYRAAHQKIFHAMLRVADRGEPVDLVTVTAELAASEQLEEIGGVSYLSELADAVPTAANVEYYARIVEEKSVLRRLIRTATSIAQDGYTREDEIDVLLDEADRKIMEVSQRKHSGAFKNIKDILVQTYDNIEMLHNRDGEITGIPTGFTELDRMTSGFQRSDLIIVAARPSVGKTAFALNIAQNVATKTNENVAIFSLEMSAQQLVMRMLCAEGNINAQNLRTGKLTPEDWGKLTMAMGSLSNAGIYIDDTPSIRVSDIRAKCRRLKQESGLGMIVIDYLQLIQGSGRSKENRQQEVSEISRSLKALARELEVPVIALSQLSRSVEQRQDKRPMMSDIRESGSIEQDADIVAFLYRDDYYNKDSENKNIIEIIIAKQRNGPVGTVQLAFIKEYNKFVNLERRFDEAQIPPGA
